Data as given in patent US20250084155A1 (University of Texas, published 2025).
Substitutions are numbered along the chain they refer to. Numbers in names are those of the source. Each block holds one binder with its values, some of them ahead of it.

Legend:
[1] = target: T1, HSP70 (human HSP70; the antigen of the binning, humanization and variant binding assays) (human, UniProt P0DMV8 1-641, limits assumed); experiment: BLI, antibody on sensor
T1 construct: also called hu HSP70
Protocol: Humanized variants were characterized for binding using biolayer interferometry (BLI). Chimeric antibodies including the murine 77A antigen binding region and human Fe regions were also tested. Antibodies and reagents were diluted out onto microwell plates and loaded into the instrument. Diluted antibodies were first immobilized onto dip-and-read sensors, and then measurements for baselines were acquired. Subsequently, the sensors were dipped into wells containing the antigen in solution, or buffer alone. The change in number of molecules bound to the sensor was quantified by measurement of the shift in the interference pattern of light during each step of the protocol. Mathematical modeling was performed based on those values and the concentrations of reagents used in the assay and used to calculate kinetics values.

[2] = target: T1, HSP70 (human HSP70; the antigen of the …); experiment: BLI, anti-human Fc capture, steady state
Protocol: (§1) Further kinetics assays were conducted for select antibody variants. Assays were performed as follows. Antibody variants were immobilized using anti-human Fc onto the surface of a series of biosensors. Antigen was passed over the surface to generate a binding response. Binding data for the antibody: antigen interactions were collected at 25° C. on the biosensors. A dilution series of the antigen was used in the association step, in order to fit results globally and get the best values for ka, kd, and KD. The response data for the binding of antigen to the surface immobilized antibody were fitted to a 1:1 binding model.

[3] = target: T1, HSP70 (human HSP70; the antigen of the …); experiment: BLI, anti-human Fc capture, antigen 100 nM
In short: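 Antibody variants captured on anti-human Fc biosensors at […]; antigen at 100 nM flowed over, 25° C. Captured antigen recorded at 610 s (start of dissociation) and 1495 s (end of dissociation), giving % dissociation.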

[4] = target: T1, HSP70 (human HSP70; the antigen of the …); experiment: BLI, anti-human Fc capture, antigen dilution series, 1:1 fit
Protocol: as §1

recombinant human FcγR2A = target: T2, recombinant human FcγR2A (human, UniProt P12318 36-218); experiment: ELISA on coated recombinant human FcγR2A; monomeric antibody; OD 450 nm
T2 sequence (looked up): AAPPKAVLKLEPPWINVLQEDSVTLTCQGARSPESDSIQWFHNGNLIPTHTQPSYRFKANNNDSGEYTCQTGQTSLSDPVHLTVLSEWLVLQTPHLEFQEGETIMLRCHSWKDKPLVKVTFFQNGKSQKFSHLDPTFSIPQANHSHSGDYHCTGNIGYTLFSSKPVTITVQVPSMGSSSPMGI
Protocol: ELISA assays were performed to assess binding to coated FcγR2A by either the monomeric antibody or the antibody in complex with HSP70. Briefly, the assay was performed by coating plates with recombinant human FcγR2A overnight at 0.3 μg/mL. Plates were then washed three times with 300 μL of 1×PBST, and then blocked using 150 µL of SuperBlock per well for 1 hr. Washing was repeated as before, then the dilution series of any of the antibody variants (referred to as “monomeric antibody”) or any of the or antibody immuno-complexes (hereafter referred to as “77A ICX”) were added. To make each dilution series, the following was performed: HSP70 was held constant, and first prepared at a 2× concentration of 200 nM. Antibody was first prepared at 600 nM (2× starting concentration) for the first well, and then serially diluted in three-fold increments using 1× PBST. For use in the assay as monomeric antibody, 80 μL of each 2× antibody dilution was added to 80 μL of 1×PBST and mixed well by pipette to make a 1× dilution series, with the highest concentration being 300 nM. To form the 77A ICX, 80 μL of each 2× antibody dilution was added to 80 μL of 2× HSP70 and mixed well by pipette. […] Plates were then read on a plate reader at 450 and 540 nm wavelengths.

T1 sequence (P0DMV8 whole entry, change not shown): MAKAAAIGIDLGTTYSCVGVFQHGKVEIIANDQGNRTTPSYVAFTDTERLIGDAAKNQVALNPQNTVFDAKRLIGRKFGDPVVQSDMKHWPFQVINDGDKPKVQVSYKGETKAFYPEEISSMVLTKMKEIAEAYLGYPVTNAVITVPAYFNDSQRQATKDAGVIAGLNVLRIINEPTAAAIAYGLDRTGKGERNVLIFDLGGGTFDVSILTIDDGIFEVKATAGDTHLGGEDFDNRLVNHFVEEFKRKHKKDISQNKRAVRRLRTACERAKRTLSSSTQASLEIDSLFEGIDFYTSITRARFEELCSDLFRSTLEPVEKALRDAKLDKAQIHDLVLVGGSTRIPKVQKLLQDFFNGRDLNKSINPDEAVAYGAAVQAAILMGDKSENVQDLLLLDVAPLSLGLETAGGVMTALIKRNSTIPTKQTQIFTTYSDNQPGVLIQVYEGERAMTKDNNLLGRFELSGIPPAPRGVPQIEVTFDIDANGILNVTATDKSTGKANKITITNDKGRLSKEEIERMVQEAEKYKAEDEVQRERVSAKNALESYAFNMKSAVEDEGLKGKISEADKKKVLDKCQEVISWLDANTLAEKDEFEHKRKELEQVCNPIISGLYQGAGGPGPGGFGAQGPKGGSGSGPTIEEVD

Kd [1]: 2.61 nM
koff [1]: 0.000173 s⁻¹
kon [1]: 66200 M⁻¹ s⁻¹
KD Steady State [2]: 1.2 nM
% Diss [3]: 7.63%
Kd [4]: 2.39 nM
koff [4]: 0.000131 s⁻¹
kon [4]: 54700 M⁻¹ s⁻¹
B1: h77A-1 (antibody, V domains shown)
VH: QIQLVQSGAEVKKPGASVKVSCKASGYTFTNYGMNWVRQAPGQGLEWMGWINTYTGEPTYADDFKGRFTFTTDTSTSTAYMELRSLRSDDTAVYFCARYDHAMDYWGQGTLVTVSS
VL: EIVLTQSPDSLAVSLGERATINCKSSQSLLNSGTRKNYLAWYQQKAGQSPKLLIYWTSTRESGVPDRFSGSGSGTDFTLTIDSLQAEDVAVYYCKQSYTLYTFGGGTKVEIK
notes: also called hVH-1 + hVL-1

KD Steady State [2]: 1.3 nM
% Diss [3]: 7.93%
Kd [4]: 2.51 nM
koff [4]: 0.000123 s⁻¹
kon [4]: 49000 M⁻¹ s⁻¹
B2: h77A-1.71 (antibody, V domains shown)
VH: B1 VH with A9S, E82D
VL: B1 VL with A12S, N22K, A86T
notes: captured by anti-human Fc

KD Steady State [2]: 0.77 nM
% Diss [3]: 7.88%
Kd [4]: 1.97 nM
koff [4]: 0.000124 s⁻¹
kon [4]: 63100 M⁻¹ s⁻¹
B3: h77A-1.14 (antibody, V domains shown)
VH: B1 VH with A61T
VL: B1 VL
notes: captured by anti-human Fc

KD Steady State [2]: 0.89 nM
% Diss [3]: 6.74%
Kd [4]: 1.41 nM
koff [4]: 0.000108 s⁻¹
kon [4]: 76400 M⁻¹ s⁻¹
B4: h77A-1.27 (antibody, V domains shown)
VH: B1 VH with A61T
VL: B1 VL with A12T
notes: captured by anti-human Fc

KD Steady State [2]: 1.1 nM
% Diss [3]: 4.74%
Kd [4]: 1.43 nM
koff [4]: 7.37e-05 s⁻¹
kon [4]: 51700 M⁻¹ s⁻¹
B5: h77A-1.12 (antibody, V domains shown)
VH: B1 VH
VL: B1 VL with L30F
notes: captured by anti-human Fc

KD Steady State [2]: 0.81 nM
% Diss [3]: 7.15%
Kd [4]: 1.44 nM
koff [4]: 9.1e-05 s⁻¹
kon [4]: 63200 M⁻¹ s⁻¹
B6: h77A-1.18 (antibody, V domains shown)
VH: B1 VH with S77R
VL: B1 VL with L53V
notes: captured by anti-human Fc

KD Steady State [2]: 0.74 nM
% Diss [3]: 9.8%
Kd [4]: 2.93 nM
koff [4]: 0.00012 s⁻¹
kon [4]: 40800 M⁻¹ s⁻¹
B7: h77A-1.59 (antibody, V domains shown)
VH: B1 VH with A9P, A61G, A97G
VL: B1 VL with S83R
notes: captured by anti-human Fc

KD Steady State [2]: 1.3 nM
% Diss [3]: 3.25%
Kd [4]: 1.27 nM
koff [4]: 6.84e-05 s⁻¹
kon [4]: 54000 M⁻¹ s⁻¹
B8: h77A-1.16 (antibody, V domains shown)
VH: B1 VH with N31K
VL: B1 VL with N22K
notes: captured by anti-human Fc

KD Steady State [2]: 1.3 nM
% Diss [3]: 7.04%
Kd [4]: 1.51 nM
koff [4]: 9.24e-05 s⁻¹
kon [4]: 61400 M⁻¹ s⁻¹
B9: h77A-1.17 (antibody, V domains shown)
VH: B1 VH with N31K, A102S
VL: B1 VL
notes: captured by anti-human Fc

KD Steady State [2]: 0.81 nM
% Diss [3]: 6.5%
Kd [4]: 1.14 nM
koff [4]: 7.64e-05 s⁻¹
kon [4]: 66900 M⁻¹ s⁻¹
B10: h77A-1.22 (antibody, V domains shown)
VH: B1 VH with A61S
VL: B1 VL with L30F
notes: captured by anti-human Fc

KD Steady State [2]: 0.023 nM
% Diss [3]: 5.34%
Kd [4]: 0.28 nM
koff [4]: 2.43e-05 s⁻¹
kon [4]: 88100 M⁻¹ s⁻¹
B11: h77A-1.75 (antibody, V domains shown)
VH: B1 VH with A9V, A61S, L83V
VL: B1 VL with L30F, T80S
notes: captured by anti-human Fc

KD Steady State [2]: 0.86 nM
% Diss [3]: 5.1%
Kd [4]: 1.93 nM
koff [4]: 0.000109 s⁻¹
kon [4]: 56700 M⁻¹ s⁻¹
B12: h77A-1.30 (antibody, V domains shown)
VH: B1 VH with L83V
VL: B1 VL with L53I
notes: captured by anti-human Fc

KD Steady State [2]: 1.2 nM
% Diss [3]: 8.73%
Kd [4]: 1.26 nM
koff [4]: 0.000111 s⁻¹
kon [4]: 88500 M⁻¹ s⁻¹
B13: h77A-1.19 (antibody, V domains shown)
VH: B1 VH with A61V, E82D
VL: B1 VL
notes: captured by anti-human Fc

KD Steady State [2]: 2.1 nM
% Diss [3]: 6.66%
Kd [4]: 2.91 nM
koff [4]: 0.000123 s⁻¹
kon [4]: 42100 M⁻¹ s⁻¹
B14: h77A-1.61 (antibody, V domains shown)
VH: B1 VH with T110S
VL: B1 VL with Q44K, A46S, T80S
notes: captured by anti-human Fc

KD Steady State [2]: 1.7 nM
% Diss [3]: 9.07%
Kd [4]: 1.61 nM
koff [4]: 0.000125 s⁻¹
kon [4]: 77800 M⁻¹ s⁻¹
B15: h77A-1.74 (antibody, V domains shown)
VH: B1 VH with A9P, S77T, A79G
VL: B1 VL with N22K, V91I
notes: captured by anti-human Fc

KD Steady State [2]: 1.2 nM
% Diss [3]: 6.22%
Kd [4]: 2.24 nM
koff [4]: 0.000123 s⁻¹
kon [4]: 54800 M⁻¹ s⁻¹
B16: h77A-1.46 (antibody, V domains shown)
VH: B1 VH with A9V
VL: B1 VL with N22K, Q44K
notes: captured by anti-human Fc

KD Steady State [2]: 1.3 nM
% Diss [3]: 5.24%
Kd [4]: 1.85 nM
koff [4]: 0.000111 s⁻¹
kon [4]: 59900 M⁻¹ s⁻¹
B17: h77A-1.94 (antibody, V domains shown)
VH: B1 VH with A61T
VL: B1 VL with L30F, L53I, G70A, T80S, S83R
notes: captured by anti-human Fc

binding result (recombinant human FcγR2A): binds
B18: h77A-1-G1m3-GAALIE (antibody, human IgG1, kappa)
heavy: QIQLVQSGAEVKKPGASVKVSCKASGYTFTNYGMNWVRQAPGQGLEWMGWINTYTGEPTYADDFKGRFTFTTDTSTSTAYMELRSLRSDDTAVYFCARYDHAMDYWGQGTLVTVSSASTKGPSVFPLAPSSKSTSGGTAALGCLVKDYFPEPVTVSWNSGALTSGVHTFPAVLQSSGLYSLSSVVTVPSSSLGTQTYICNVNHKPSNTKVDKRVEPKSCDKTHTCPPCPAPELLAGPSVFLFPPKPKDTLMISRTPEVTCVVVDVSHEDPEVKFNWYVDGVEVHNAKTKPREEQYNSTYRVVSVLTVLHQDWLNGKEYKCKVSNKALPLPEEKTISKAKGQPREPQVYTLPPSREEMTKNQVSLTCLVKGFYPSDIAVEWESNGQPENNYKTTPPVLDSDGSFFLYSKLTVDKSRWQQGNVFSCSVMHEALHNHYTQKSLSLSPGK
light: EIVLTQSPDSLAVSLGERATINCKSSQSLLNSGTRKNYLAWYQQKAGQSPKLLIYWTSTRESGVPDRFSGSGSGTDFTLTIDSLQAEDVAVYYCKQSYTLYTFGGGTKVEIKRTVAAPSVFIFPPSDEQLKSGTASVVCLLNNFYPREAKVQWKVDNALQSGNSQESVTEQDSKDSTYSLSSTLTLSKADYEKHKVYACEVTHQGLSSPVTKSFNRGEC
notes: IgG1 G236A/A330L/I332E (EU) Fc variant; also called 77A^GAALIE; copies: 2 + 2
